From US20240228595A1

Biological target: SARS-COV-2 Omicron BA.1.1 spike on HIV-1 based pseudovirus (SARS-CoV-2 Omicron BA.1.1) (UniProt P0DTC2)
Assay: cell-based or functional assay

S309 (Sotrovimab) (antibody)
pseudovirus neutralization, IC50: 0.533 µg/mL
